Test results taken from the RNAGym collection of RNA variant scans (doi:10.7554/elife.80360).

B1: HDV Ribozyme (parent)
chain: GGCCGGCAUGGUCCCAGCCUCCUCGCUGGCGCCGGCUGGGCAACAUUCCGAGGGGACCGUCCCCUCGGUAAUGGCGAAUGGGACCCA

Variants of: B1
Experiment: self-cleavage, relative activity (ratio to wild type); higher = more cleavage; co-transcriptional

Row | Variant | self-cleavage
1 | C21U G82U | 0.115
2 | C21U G82A | 0.0906
3 | C21U G82C | 0.181
4 | C22A G68C | 0.22
5 | C22A G68U | 0.212
6 | C21G G28C | 0.0755
7 | C21G G28A | 0.0744
8 | C22A C61A | 0.415
9 | C22A C61G | 0.323
10 | C22G C57G | 0.219
11 | C22G C57A | 0.0652
12 | C22G C57U | 0.089
13 | C22G A87U | 0.141
14 | C22G A87C | 0.0866
15 | C21U U60A | 0.237
16 | C21U U60C | 0.219
17 | C22G G50U | 0.0297
18 | C21U G34A | 0.0225
19 | C22A C33G | 0.213
20 | C22G A78C | 0.131
21 | C22G A78G | 0.141
22 | C21G G29A | 0
23 | C21G G29C | 0.0707
24 | C22G C86G | 0.0779

Row | Variant | self-cleavage
25 | C21U G52A | 0.24
26 | C21U G67C | 0.205
27 | C22G G54A | 0.101
28 | C22G G54C | 0.0277
29 | C21U U47C | 0.271
30 | C21G C61G | 0.0386
31 | C21G C61A | 0
32 | C21U C75G | 0.151
33 | C21U C75A | 0.0739
34 | C21U C75U | 0.0248
35 | C21G G50A | 0
36 | C21G G50C | 0.116
37 | C21G G50U | 0.0594
38 | C21U C22G | 0.0264
39 | C21U C22A | 0.0482
40 | C21U G38A | 0.177
41 | C21U G38U | 0.135
42 | C21U G38C | 0.0923
43 | C21G C57A | 0.166
44 | C21G C57U | 0.138
45 | C21G G52C | 0.111
46 | C21G G52U | 0.117
47 | C21U C64A | 0.185
48 | C22A C64U | 0.32

Row | Variant | self-cleavage
49 | C22A C64G | 0.302
50 | C22A C64A | 0.107
51 | C21G C84A | 0.138
52 | C21G U65C | 0.113
53 | C22G C26A | 0.156
54 | C21G C86G | 0.0369
55 | C21G C86A | 0.0665
56 | C22A U79C | 0.18
57 | C22A U79A | 0.131
58 | C22A C30G | 0.154
59 | C22A U69A | 0.284
60 | C22A C62A | 0.339
61 | C22A C62U | 0.387
62 | C21G G38A | 0.0339
63 | C21G G38U | 0.0702
64 | C22A A43C | 0.111
65 | C22A G52A | 0.292
66 | C22A G52U | 0.32
67 | C21U A56C | 0.289
68 | C22G G52C | 0.0652
69 | C22A G54U | 0.317
70 | C22A G54C | 0.281
71 | C22G G40U | 0.104
72 | C22G | 0.0832

Row | Variant | self-cleavage
73 | C22A | 0.306
74 | C22G A51C | 0.116
75 | C22G A51G | 0.104
76 | C21U A87C | 0.206
77 | C21U A87G | 0.165
78 | C22G C24U | 0.104
79 | C21U U79G | 0.0426
80 | C21U U79C | 0.0573
81 | C21U C86U | 0.282
82 | C21U G55U | 0.17
83 | C21U C49A | 0.291
84 | C21U U69C | 0.138
85 | C22A G35A | 0.0386
86 | C22A G35U | 0.0791
87 | C22A G35C | 0
88 | C22G G31U | 0.0361
89 | C22G A45C | 0.0489
90 | C22G A45G | 0
91 | C22A C44G | 0.0489
92 | C22A C44A | 0.151
93 | C21G C75G | 0.0426
94 | C21U U65A | 0.293
95 | C22A U27G | 0.151
96 | C22G A43C | 0.0811

Row | Variant | self-cleavage
97 | C22G A43U | 0.115
98 | C22G A43G | 0
99 | C22A G67A | 0.185
100 | C22A C85A | 0.378
101 | C22A C85G | 0.219
102 | C22G A70G | 0.185
103 | C22G A70U | 0.173
104 | C22A C26A | 0.262
105 | C22A C26G | 0.119
106 | C22G C64G | 0.0723
107 | C22G C64A | 0.125
108 | C22A C32U | 0.19
109 | C21U A78G | 0.155
110 | C22G G28C | 0
111 | C21U | 0.251
112 | C21G U72A | 0.0723
113 | C22A C66A | 0.258
114 | C22A C66U | 0.302
115 | C21U C44G | 0.424
116 | C21U C44U | 0.62
117 | C21U G50C | 0.115
118 | C21U G50U | 0.141
119 | C21U G50A | 0.253
120 | C22G C48G | 0.0489

Row | Variant | self-cleavage
121 | C21U A43G | 0.0898
122 | C21U A43U | 0.13
123 | C21U C84U | 0.0923
124 | C21U C84A | 0.0755
125 | C21U C84G | 0.122
126 | C21G U79C | 0.0244
127 | C21G U79A | 0.0875
128 | C21U C36A | 0.0923
129 | C21G G25U | 0
130 | C21G G25C | 0.0489
131 | C22G C75U | 0.16
132 | C22A C84G | 0.17
133 | C22A C84U | 0.256
134 | C22A C84A | 0.0707
135 | C21U U27C | 0.0536
136 | C21U U27A | 0.0536
137 | C22A A56U | 0.323
138 | C22A G31U | 0.0594
139 | C22A G31C | 0
140 | C22A G31A | 0.128
141 | C21U U72G | 0.19
142 | C21U U72A | 0.141
143 | C22A G81U | 0.0536
144 | C21U C57A | 0.233

Row | Variant | self-cleavage
145 | C21U C57G | 0.196
146 | C21G G39A | 0.0563
147 | C21G G39U | 0.0378
148 | C21G G59U | 0.0941
149 | C21G G59A | 0.0594
150 | C21U G31C | 0.0723
151 | C21U G31A | 0.142
152 | C21G U37G | 0.166
153 | C21U C85A | 0.366
154 | C22A G29C | 0.0449
155 | C22A G29A | 0.0297
156 | C22G C85U | 0.0845
157 | C22G C85A | 0
158 | C22G C61G | 0.104
159 | C22G C61U | 0.0723
160 | C22G C44G | 0.0437
161 | C22G C44U | 0.0361
162 | C22A G55A | 0.284
163 | C21G U60A | 0.253
164 | C21U G25U | 0.0811
165 | C21U C63A | 0.234
166 | C21U C63U | 0.341
167 | C21U G73U | 0.145
